Experiment [1] concerns the target Human IL-23 with linker (human) (UniProt P29460). As to the kind of experiment: SPR, ProteOn XPR36, global 1:1 fit. For orientation: SPR reads the build-up and loss of mass on a sensor chip optically.
Experiment [2] deals with recombinant human IL-23 (human) (UniProt P29460). As to the kind of experiment: cell-based or functional assay.
Experiment [3] concerns the target Human IL-23 no linker (human) (UniProt P29460). As to the kind of experiment: SPR, ProteOn XPR36, global 1:1 fit.
In experiment [4] the target is cynomologous IL-23 (cynomolgus monkey). As to the kind of experiment: SPR, ProteOn XPR36, global 1:1 fit.
In experiment [5] the target is natural human IL-23 from activated THP-1 cells (human) (UniProt P29460). As to the kind of experiment: cell-based or functional assay.

Where “and” joins values, the source holds several entries; their conditions need not be identical. Identical values can stand only once.

For orientation: Kd means the equilibrium constant for the complex coming apart. Read a low Kd as higher affinity. By koff is commonly meant a measure of how fast the partners let go of each other. By kon is commonly meant a measure of how fast the partners come together. A higher kon goes with faster complex formation.

Sequence of recombinant human IL-23 (human) (chain, as listed by the source limits assumed, chain 1 of 2): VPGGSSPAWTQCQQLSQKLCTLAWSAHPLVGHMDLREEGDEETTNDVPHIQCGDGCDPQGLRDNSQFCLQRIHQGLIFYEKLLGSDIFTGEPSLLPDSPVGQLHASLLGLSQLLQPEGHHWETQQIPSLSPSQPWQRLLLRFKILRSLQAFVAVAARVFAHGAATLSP
Sequence of recombinant human IL-23 (human) (P29460 23-328 limits assumed, chain 2 of 2): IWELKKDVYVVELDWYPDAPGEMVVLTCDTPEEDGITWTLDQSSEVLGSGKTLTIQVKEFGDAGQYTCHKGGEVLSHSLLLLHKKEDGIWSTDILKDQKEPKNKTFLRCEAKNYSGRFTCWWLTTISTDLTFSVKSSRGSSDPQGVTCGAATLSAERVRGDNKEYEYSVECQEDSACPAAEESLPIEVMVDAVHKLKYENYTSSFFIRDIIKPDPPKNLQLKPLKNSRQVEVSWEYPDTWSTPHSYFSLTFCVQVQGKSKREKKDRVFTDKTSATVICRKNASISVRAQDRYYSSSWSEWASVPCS
Sequence of Human IL-23 no linker (human) (chain, as listed by the source limits assumed, chain 1 of 2): as the sequence (chain, as listed by the source limits assumed, chain 1 of 2) above
Sequence of Human IL-23 no linker (human) (P29460 23-328 limits assumed, chain 2 of 2): as the sequence (P29460 23-328 limits assumed, chain 2 of 2) above
Sequence of natural human IL-23 from activated THP-1 cells (human) (chain, as listed by the source limits assumed, chain 1 of 2): as the sequence (chain, as listed by the source limits assumed, chain 1 of 2) above
Sequence of natural human IL-23 from activated THP-1 cells (human) (P29460 23-328 limits assumed, chain 2 of 2): as the sequence (P29460 23-328 limits assumed, chain 2 of 2) above

B1: Antibody B (antibody, human IgG1, kappa, L234A L235A, V domains shown)
VH: QVQLVQSGAEVKKPGSSVKVSCKASGFTFTDQTIHWVRQAPGQGLEWMGYIYPRDDSPKYNENFKGKVTLTADKSTSTAYMELSSLRSEDTAVYYCAIPDRSGYAWFIYWGQGTLVTVSS
VL: DIQMTQSPSSLSASVGDRVTITCKASRDVAIAVAWYQQKPGKVPKLLIYWASTRHTGVPSRFSGSGSRTDFTLTISSLQPEDVADYFCHQYSSYPFTFGSGTKLEIKR
On to B1, for which, in experiment [1], the Kd is below 1 pM, the koff is below 1e-06 s⁻¹ and the kon is 356000 M⁻¹ s⁻¹.

B2: Antibody D (antibody, human IgG1, kappa, L234A L235A, V domains shown)
VH: QVQLVQSGAEVKKPGSSVKVSCKASGFTFTDQTIHWVRQAPGQGLEWMGYIYPRDDSPKYNENFKGKVTLTADKSTSTAYMELSSLRSEDTAVYYCAIPDRSGYAWFIYWGQGTLVTVSS
VL: DIQMTQSPSSLSASVGDRVTITCKASRDVAIAVAWYQQKPGKVPKLLLFWASTRHTGVPDRFSGSGSGTDFTLTISSLQPEDLADYYCHQYSSYPFTFGQGTKLEIKR
In experiment [1], B2 returned an equilibrium dissociation constant (Kd) of 107 pM, an off-rate (koff) of 4.07e-05 s⁻¹ and a kon of 382000 M⁻¹ s⁻¹.

B3: Antibody 6H12 (disclosed in WO 2007/027714) (antibody, from another filing, V domains shown)
VH: EVHLQQSGPELVKPGASVKMSCKASGYTFNRYLIHWVKQKPGQGLEWIGYINPNNDGTNYNEKFKGKATLTSDKSSSTAYMELSSLTSEDSAVYYCAANWDQAYWGQGTLVTVSA
VL: DIVMTQSPATLSVTPGDRVSLSCRASQSISDYLHWYQQKSHESPRLLIKYTSQSISGIPSRFSGSGSGSDFTLSINSVEPEDVGVYYCQNGHSFPFTFGSGTKLEIKR
For the molecule B3, the IC50, IL-23 stimulated IL-17 production from mouse splenocytes in experiment [2] is 1600 pM and 806 pM and 1300 pM. In experiment [3], the Kd was 214 pM, the koff was determined as 0.000107 s⁻¹ and the kon turned out to be 499000 M⁻¹ s⁻¹. Moreover, in experiment [4], the equilibrium dissociation constant (Kd) came to 157 pM, the koff worked out at 0.000156 s⁻¹ and the kon was 991000 M⁻¹ s⁻¹.

B4: antibody C1273 (disclosed in WO 2007/005955) (antibody, from another filing, V domains shown)
VH: DVNLVESGGGLVKPGGSLKLSCAASGFTFSSYTMSWVRQTPEKRLEWVATISSGGTYTYYPDSVKGRFTISRDNAKNTLYLQMSSLKSEDTAMFYCTRDNHAYDRGPFFDYWGQGATLTVSS
VL: DIVMSQSPSSLVVSVGEKVTMSCKSSQNLFYRSNQKNHLAWYQQKPGQSPTLLIYWTSTRESGVPDRFTGSGSGTDFTLTISRVKAEDLAVYYCQQYYSYPPTFGGGTKLEIK
Take B4: the IC50, IL-23 stimulated IL-17 production from mouse splenocytes in experiment [5] is 93 pM and 44 pM. In experiment [2], the IC50, IL-23 induced STAT3 phosphorylation in human DB cells (phospho-STAT3 ELISA) is 163 pM and 438 pM.
